# Assay results published in the supplement of paper PMC9170038.
# Tested on: MS2 coat protein
# Test: apparent KD of MS2 coat protein; designed switch direction (-1 OFF switch, 1 ON switch): -1; higher = weaker reporter binding
# Method in brief: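 Normalised cluster fluorescence was curve-fitted, and each design's median over clusters is its apparent KD. Before this, SNAP-549-labelled MS2 coat protein was titrated from 0.7 or 1.5 nM, doubling to 3 µM, over RNA switches transcribed on Illumina chips by stalled E. coli RNA polymerase. Titrations had no input, 200 uM small-molecule ligand, or an oligonucleotide input, and steps lasted 0.8–1.5 h (lowest) to 10–20 min (highest).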
# [1] = input ligand: microRNA oligo, concentration not stated
# [2] = Eterna round: R95, input ligand: microRNA oligo, concentration not stated
# [3] = Eterna round: R95, input ligand: FMN 200 uM
# [4] = Eterna round: R95, input ligand: none
Sequence,apparent KD of MS2 coat protein (input ligand: FMN 200 uM) [nM],apparent KD of MS2 coat protein (input ligand: none) [nM],further results
"ACAUGAGGAUCACCCAUGUGACCACAAUGGCUGAUGUAACAACAGGAUAUGCGUGAAUAUCUAACGCAGAAGGGUUAUGACUGG [Deportation 60 - Jieux - Exclusion NG 3] (Eterna round: R96, puzzle: Exclusion NG 3)",73.5,65.4,apparent KD of MS2 coat protein [1]: 71.6 nM
"ACAUGAGGAUCACCCAUGUUUUUCGGGUACUCUUUUUACAGCAAGGAUAUGCAUGUUUUUUUUACGCAGAAGGUGCUUUACGUC [JR_ExcNG3_Sub067] (Eterna round: R96, puzzle: Exclusion NG 3)",–,–,apparent KD of MS2 coat protein [1]: 77.7 nM
"ACAUGUCCUGAGGAUAUCAAAGUCCUCCCGACAUGAGAAGGCAGGACAUGAGGAUCACCCAUGUGGAGCAGGGA [Aarorbeti] (Eterna round: R97, puzzle: Exclusion 6)",420,111,–
"ACAUGUUAUGUAGGAUAUUGGACACAUGAGGAUCACCCAUGUAACCGGAGGCUUUACUAUGAGUUCGAGAAGGGUAUGAACAUG [Ex NG2 #67] (Eterna round: R96, puzzle: Exclusion NG 2)",77.5,49.1,apparent KD of MS2 coat protein [1]: 44.3 nM
"ACAUGUUAUUUAGGAUAUUGGACACAUGAGGAUCACCCAUGUACCCGGAGGCUUUACUAUGAGUUCGAGAAGGAGAUGUACAUG [Ex NG2 #70] (Eterna round: R96, puzzle: Exclusion NG 2)",89.3,75.6,apparent KD of MS2 coat protein [1]: 59.3 nM
"ACAUGUUGUCCAUGAUAUUACAUGAGGAUCACCCAUGUUAUGGCGAUUUUGAUGUGUAAGUUUGUUGCUCGUCUUAU [JR_STOV1_Sub061] (Eterna round: R97, puzzle: Sensor, turn-off variant 1)",19.2,20.6,–
"ACAUGUUGUGCAGGAUAUGGGACACAUGAGGAUCACCCAUGUGGCUACAUGUCAUACCAAGCGUCUCAGAAGGGUAUUAACAUG [Ex NG2 #37] (Eterna round: R96, puzzle: Exclusion NG 2)",31.9,23.2,apparent KD of MS2 coat protein [1]: 24.8 nM
"ACAUUGGUAGUGAGGAUAUCGGUGUGAUAGAAUGCCGAGAAGGCACAUGAGGAUCACCCAUGUAAGAUUGGGCA [JR_BMEx4_Sub043] (Eterna round: R97, puzzle: Brourd's mod of Exclusion 4)",299,186,–
ACCGUGCAAGGAUAUCGUUACCUCGACAUGAGGAUCACCCAUGUGGCCAUAUAGCGAUUGCGAGAAGGUGCGGGUA [Aatveti] (puzzle: Exclusion 5),–,–,apparent KD of MS2 coat protein [2]: 85.2 nM
ACCUCACAUGAGGAUCACCCAUGUUAGGAUAUCUCGAUGCUCCGCGGGCGGGAGCAUCAGAGAAGGAACGUGCA [Geusarvees] (puzzle: Exclusion 1),–,–,apparent KD of MS2 coat protein [2]: 18.3 nM
"ACCUCUGAGGAGGAUAUACAGUGCGAAAGGACAGUAGAAGGCUUCACAUGAGGAUCACCCAUGUCGAAUAGUGA [EX6 #79] (Eterna round: R97, puzzle: Exclusion 6)",86.1,58.7,–
"ACGAAACAUGAGGAUCACCCAUGUGAGGAUAUUAUGUUAUAAUACAUACUAUACAUAUUAAGAAGGCACAUUGG [Design #12] (Eterna round: R97, puzzle: Exclusion 1)",138,74.6,–
"ACGAAAGCAAACAGGUGAAACAUGAGGAUCACCCAUGUCCUCAUUUGCUCGUCUUAUAAGCUAUGCGAAAGCAUAGC [Mat - Sensor v3 - turn-off var 1 - Eli Mod - D53] (puzzle: Sensor v3, turn-off variant 1)",–,–,apparent KD of MS2 coat protein [3]: 60.4 nM; apparent KD of MS2 coat protein [2]: 1270 nM; apparent KD of MS2 coat protein [4]: 72.4 nM
"ACGAGCUUUUUGCUCGUUUACAUGAGGAUCACCCAUGUGUCUUCGCGCCCGGGCCCGGGCGGGCCCGGGCCCGGGCG [-52.9, -56.9, A 10%] (Eterna round: R97, puzzle: Sensor, turn-off variant 1)",50.6,57.6,–
ACGAGGUCAGGAUAUACAGAGAGAAGGAGUUGGUUGAGGUAACAUGAGGAUCACCCAUGUAGAAGGGACUGGGA [JR_Exclu2_Sub081] (puzzle: Exclusion 2),–,–,apparent KD of MS2 coat protein [3]: 48 nM; apparent KD of MS2 coat protein [2]: 31.2 nM; apparent KD of MS2 coat protein [4]: 34.9 nM
"ACGAUGACUGAAAGAAGUCAAAAGACAUGAGGAUCACCCAUGUAGGAUAUGGCUACGAAAAGUAGUCAGAAGGACAAGUCAUCA [Omei Exc(NG) 3 Av4] (Eterna round: R96, puzzle: Exclusion NG 3)",10.1,14.1,apparent KD of MS2 coat protein [1]: 9.69 nM
ACGCAACAUGAGGAUCACCCAUGUGAGGAUAUGUAAAUAGUAAACAAAUAGGAAAUGAACAGAAGGCACACCGG [JR_Exclusion1_Sub005] (puzzle: Exclusion 1),–,–,apparent KD of MS2 coat protein [2]: 32.5 nM
"ACGCAUUGCCUUUGGUAGUGCGUAACAUGAGGAUCACCCAUGUAGGAUAUGGUAGGCUUUGCUUACCAGAAGGACAUUAUAAUC [Mat - Exclusion NG 3 - Mod of JL - D8] (Eterna round: R96, puzzle: Exclusion NG 3)",65,25.1,apparent KD of MS2 coat protein [1]: 18.5 nM

Sequence,apparent KD of MS2 coat protein (input ligand: FMN 200 uM) [nM],apparent KD of MS2 coat protein (input ligand: none) [nM],further results
"ACGCAUUGCCUUUGGUAGUGCGUUACAUGAGGAUCACCCAUGUAGGAUAUGGUAGGCUUUGCUUACCAGAAGGACAUGAUAAUU [JL ENG3 1.02] (Eterna round: R96, puzzle: Exclusion NG 3)",195,37.4,apparent KD of MS2 coat protein [1]: 29.1 nM
"ACGCCAGGAGGAUAUGCAAUAAGUAACAUGAGGAUCACCCAUGUUCGGGCGAUGCUCGUGGCAGAAGGCCUAGCCG [Edteonra] (Eterna round: R97, puzzle: Exclusion 5)",329,36.1,–
ACGCCUCCUGUCAGGAUAUGCAUCGGGCUUCCGCAGCAGAAGGGACAUGAGGAUCACCCAUGUCAAAUAAAAUC [Onsoqule] (puzzle: Brourd's mod of Exclusion 4),–,–,apparent KD of MS2 coat protein [2]: 16.3 nM
"ACGGACCGAGGAUAUGCAUGCAGGAUACCUGGGUCCAAUGGACAUGAGGAUCACCCAUGUAGAAGGCGGAAAUA [Arinisra] (Eterna round: R97, puzzle: Exclusion 2)",86.3,31.4,–
"ACGGUCAUAGGAUAUACUGGGACAGCGCUAAGGCGCCCUUGACAUGAGGAUCACCCAUGUAGAAGGAUGUCCGA [EX2 C.1] (Eterna round: R97, puzzle: Exclusion 2)",152,22.6,–
ACGUAUAGAGGAUAUAGUGAAUAUUACAUGAGGAUCACCCAUGUUCUUCAAAGCAUAUUCCUAGAAGGCUGAUGAA [EX-5 Malc#13] (puzzle: Exclusion 5),–,–,apparent KD of MS2 coat protein [2]: 47.5 nM
ACUAGAUGAGGAUAUGCACAUUUUAGUGUUCCUCUAGAUUAACAUGAGGAUCACCCAUGUAGAAGGCGUCAUUA [Exclusion 2 - 14] (puzzle: Exclusion 2),–,–,apparent KD of MS2 coat protein [2]: 49.9 nM
"ACUCACGCAGGAUAUACAUGAGGAUCACCCAUGUUCGAAGGGCGUGGGCACAAAGUCUGUAGAAGGGCGAAAAU [Zave] (Eterna round: R97, puzzle: Exclusion 3)",19.2,16.3,–
"ACUCACUCGCGAGGAUAUGGACAAAUAUAAACGCUAGAAGGCGCGACAUGAGGAUCACCCAUGUACUCACUCACUCACUCACAU [my 1st design ever] (Eterna round: R96, puzzle: Exclusion NG 1)",62.6,41.9,apparent KD of MS2 coat protein [1]: 27.5 nM
"ACUCAGUGAGGAUAUCGCCAAAGAGCCGUAACGGCCUUUGAUGAGAAGGCACAUGAGGAUCACCCAUGUAAGCA [EX4 C.1] (Eterna round: R97, puzzle: Exclusion 4)",387,122,–
"ACUCCAUAUGUGAGGAUAUGGAAAGAAAAUAAAAUCCAGAAGGCACAUGAGGAUCACCCAUGUACCGCAGGGAC [BmEX4 A.29] (Eterna round: R97, puzzle: Brourd's mod of Exclusion 4)",17.7,14.5,–
"ACUGGAGCAGGAUAUGCAUUCGUGCUUCGGCACGUAAGGUCACAUGAGGAUCACCCAUGUAGAAGGGCUCCAGU [E2/6-D1] (Eterna round: R97, puzzle: Exclusion 2)",32.9,19.7,–
"ACUGGUCGAGGAUAUACAUGAGGAUCACCCAUGUUGAUCAACUGCCGAUAGGCAGAAUGUAGAAGGCGACCAGU [E3/7-A2] (Eterna round: R97, puzzle: Exclusion 3)",119,942,–
"ACUGUGUAAGGAUAUGUGAUACACUGCUAUUUAGGUGAGUCACAGAAGGUACAUGAGGAUCACCCAUGUCCGGG [Eternabot (L2) Solution 32] (Eterna round: R97, puzzle: Exclusion 4)",222,172,–
"ACUUACUGAGGAUAUACAUAGAUUUACAUGAGGAUCACCCAUGUUCCUCUAAGUAUAUAUGUAGAAGGCAGAAGGU [Mat - Exclusion 5 - JL Mod - D42] (Eterna round: R97, puzzle: Exclusion 5)",177,214,–
"ACUUAUAGAGGAUAUACAGAUUAUUACAUGAGGAUCACCCAUGUUCUUCAAUGUAUAUAUGUAGAAGGCUAAGGAU [Mat - Exclusion 5 - JL Mod - D8] (Eterna round: R97, puzzle: Exclusion 5)",192,75.9,–
"ACUUCACAUGAGGAUCACCCAUGUGAGGAUAUCGUCGAGGAUGUAAUGCCAUCCGUGGCGAGAAGGCGCAUGGG [Exclusion 1 (Mod1.1 solution 40 by Eternabot)] (Eterna round: R97, puzzle: Exclusion 1)",28.5,79.8,–
